Experimental data published in patent publication US20190330277A1 (PIRBRIGHT INSTITUTE, published 2019).

What was measured:
[1] = biological target: T1, 391-2-DS-Cav1-BZGJ9_gyc10; assay: ELISA, variant from culture supernatant on Ni-NTA plate [continued]
T1 construct: also called sc-v60
Protocol: (§1) Initial assessment of all constructs were performed using a 96-well microplate format for high throughput expression followed by an ELISA-based antigenic evaluation as described previously 17. […] Plasmid DNA and TrueFect-Max (United BioSystems, MD) were mixed and added to the growing cells, and the 96-well plate incubated at 37° C., 5% CO2. One day post transfection, enriched medium (high glucose DMEM plus 25% ultra-low IgG fetal bovine serum, 2× nonessential amino acids, 1× glutamine) was added to each well, and the 96-well plate was returned to the incubator for continuous culture.

[2] = biological target: T2, 391-2-DS-Cav1-BZGJ9; assay: as above
T2 construct: also called sc-v47
Protocol: as §1

[3] = biological target: T3, 391-2-DS-Cav1-BZGJ9_gyc4; assay: as above
T3 construct: also called sc-v53
Protocol: as §1

[4] = biological target: T4, KXds2; assay: as above
T4 construct: also called sc-v50
Protocol: as §1

[5] = biological target: T5, 391-2-DS-Cav1-SC-IP-1; assay: as above
T5 construct: also called sc-v49
Protocol: as §1

[6] = biological target: T6, RB94_sc9-10 DS-CAV1 L373R; assay: as above
T6 construct: also called sc-v38
Protocol: as §1

[7] = biological target: T7, KXsb2; assay: as above
T7 construct: also called sc-v56
Protocol: as §1

[8] = biological target: T8, RB94 DS-CAV1 N70K S104F K117T; assay: as above
T8 construct: also called sc-v41
Protocol: as §1

[9] = biological target: T9, 391-2_DS-Cav1-tzsc4; assay: as above
T9 construct: also called sc-v51
Protocol: as §1

[10] = biological target: T10, 391-2_DS-Cav1-tzsc2; assay: as above
T10 construct: also called sc-v57
Protocol: as §1

[11] = biological target: T11, 391-2-DS-Cav1- F-SC_11R; assay: as above
T11 construct: also called sc-v54
Protocol: as §1

[12] = biological target: T12, sc9-10_DS-CAV1_bRSV(RB94)_Fd_fp1_ig1; assay: as above
T12 construct: also called sc-v44
Protocol: as §1

[13] = biological target: T13, 391-2_DS-Cav1-tzsc6; assay: as above
T13 construct: also called sc-v58
Protocol: as §1

[14] = biological target: T14, sc9-10_DS-CAV1_bRSV(RB94)_Fd_(hRSV-leader)_ig1; assay: as above
T14 construct: also called sc-v43
Protocol: as §1

[15] = biological target: T15, 391-2-DS-Cav1-IP-7; assay: as above
T15 construct: also called sc-v46
Protocol: as §1

[16] = biological target: T16, 391-2-DS-Cav1-BZGJ9_gyc3; assay: as above
T16 construct: also called sc-v45
Protocol: as §1

[17] = biological target: T17, 391-2-DS-Cav1-BZGJ9_gyc6; assay: as above
T17 construct: also called sc-v55
Protocol: as §1

[18] = biological target: T18, 391-2_DS-Cav1-tzsc4; assay: as above
T18 construct: also called sc-v39
Protocol: as §1

[19] = biological target: T19, 391-2_DS-Cav1-tzsc9; assay: as above
T19 construct: also called sc-v52
Protocol: as §1

[20] = biological target: T20, 391-2-DS-Cav1-IP-2; assay: as above
T20 construct: also called sc-v40
Protocol: as §1

[21] = biological target: T21, 391-2-DS-Cav1-BZGJ9_gyc2; assay: as above
T21 construct: also called sc-v48
Protocol: as §1

[22] = biological target: T22, RB94 site 0 hRSV bovSurf DS-Cav1-BZGJ9 Long FdPL; assay: ELISA, variant from culture supernatant on Ni-NTA plate;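 also: antigenic evaluation by ELISA of constructs expressed at small scale in 96-well plates after transient plasmid transfection of cells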
T22 construct: also called sc-v7
Protocol: as §1

[23] = biological target: T23, sc9-10_DS-CAV1_bRSV(RB94)_Fd_hp2_ig1; assay: as above
T23 construct: also called sc-v3
Protocol: as §1

[24] = biological target: T24, 391-2-DS-Cav1-IP-4; assay: as above
T24 construct: also called sc-v32
Protocol: as §1

[25] = biological target: T25, sc9-10_DS-CAV1_bRSV(RB94)_Fd_hp1_ig1; assay: as above
T25 construct: also called sc-v2
Protocol: as §1

[26] = biological target: T26, RB94 DS-Cav1 Long FdPL; assay: as above
T26 construct: also called sc-v31
Protocol: as §1

[27] = biological target: T27, RB94 site 0 hRSV DS-Cav1 Long FdPL; assay: as above
T27 construct: also called sc-v22
Protocol: as §1

[28] = biological target: T28, 391-2-DSCav1- F-SC_7R; assay: as above
T28 construct: also called sc-v36
Protocol: as §1

[29] = biological target: T29, 391-2wt_F-SC_12R core; assay: as above
T29 construct: also called sc-v28
Protocol: as §1

[30] = biological target: T30, 391-2-site 0 hRSV DSCav1-BZGJ9 Long; assay: as above
T30 construct: also called sc-v9
Protocol: as §1

[31] = biological target: T31, 391-2 hu/bov-DS-Cav1-BZGJ9 Long; assay: as above
T31 construct: also called sc-v18
Protocol: as §1

[32] = biological target: T32, 391-2-DS-Cav1-BZGJ9_gyc1; assay: as above
T32 construct: also called sc-v16
Protocol: as §1

[33] = biological target: T33, 391-2-DS-Cav1-BZGJ9 Long; assay: as above
T33 construct: also called sc-v17
Protocol: as §1

B1: D25 antibody (antibody, V domains shown)
VH: QVQLVQSGAEVKKPGSSVMVSCQASGGPLRNYIINWLRQAPGQGPEWMGGIIPVLGTVHYAPKFQGRVTITADESTDTAYIHLISLRSEDTAMYYCATETALVVSTTYLPHYFDNWGQGTLVTVSS
VL: DIQMTQSPSSLSAAVGDRVTITCQASQDIVNYLNWYQQKPGKAPKLLIYVASNLETGVPSRFSGSGSGTDFSLTISSLQPEDVATYYCQQYDNLPLTFGGGTKVEIK
notes: also called mAb D25
Work on B1 yielded an ELISA binding value [1] of 0.136, an ELISA binding value [2] of 0.183 and an ELISA binding value [3] of 0.138. It also gave an ELISA binding value [4] of 0.109, an ELISA binding value [5] of 0.0985 and an ELISA binding value [6] of 0.27. The ELISA binding value [7] was 0.132, the ELISA binding value [8] was 0.17 and the ELISA binding value [9] was 0.138. For the same binder, the ELISA binding value [10] was 0.0883, the ELISA binding value [11] was 0.161 and the ELISA binding value [12] was 0.191. The ELISA binding value [13] was 0.138, the ELISA binding value [14] was 0.197 and the ELISA binding value [15] was 0.201. The ELISA binding value [16] was 0.164, the ELISA binding value [17] was 0.135 and the ELISA binding value [18] was 0.219. It also gave an ELISA binding value [19] of 0.132, an ELISA binding value [20] of 0.197 and an ELISA binding value [21] of 0.144. For the same binder, the ELISA binding value [22] was 2.21, the ELISA binding value [23] was 2.43 and the ELISA binding value [24] was 0.333. The ELISA binding value [25] was 2.44, the ELISA binding value [26] was 0.392 and the ELISA binding value [27] was 1.02. The ELISA binding value [28] was 0.225, the ELISA binding value [29] was 0.709 and the ELISA binding value [30] was 2.02. For the same binder, the ELISA binding value [31] was 1.39, the ELISA binding value [32] was 1.4 and the ELISA binding value [33] was 1.3.

B2: MPE8 antibody (antibody, V domains shown)
VH: EVQLVESGGGLVKPGGSLRLSCAASGFTFSSYSMNWVRQAPGKGLEWVSSISASSSYSDYADSAKGRFTISRDNAKTSLFLQMNSLRAEDTAIYFCARARATGYSSITPYFDIWGQGTLVTVSS
VL: QSVVTQTPSVSGAPGQRVTISCTGSSSNIGAGYDVHWYQQLPGTAPKLLIYDNNNRPSGVPDRFSASKSGTSASLAITGLQAEDEADYYCQSYDRNLSGVFGTGTKVTVL
notes: also called mAb MPE8
B2 showed an ELISA binding value [1] of 0.0498, an ELISA binding value [2] of 0.0926 and an ELISA binding value [3] of 0.0901. It also gave an ELISA binding value [4] of 0.143, an ELISA binding value [5] of 0.155 and an ELISA binding value [6] of 0.258. It also gave an ELISA binding value [7] of 0.0752, an ELISA binding value [8] of 0.201 and an ELISA binding value [9] of 0.096. The ELISA binding value [10] was 0.109, the ELISA binding value [11] was 0.0668 and the ELISA binding value [12] was 0.0965. For the same binder, the ELISA binding value [13] was 0.0583, the ELISA binding value [14] was 0.105 and the ELISA binding value [15] was 0.0761. For the same binder, the ELISA binding value [16] was 0.123, the ELISA binding value [17] was 0.0866 and the ELISA binding value [18] was 0.263. It also gave an ELISA binding value [19] of 0.1, an ELISA binding value [20] of 0.217 and an ELISA binding value [21] of 0.12. The ELISA binding value [22] was 2.14, the ELISA binding value [23] was 2.21 and the ELISA binding value [24] was 0.541. For the same binder, the ELISA binding value [25] was 2.18, the ELISA binding value [26] was 0.489 and the ELISA binding value [27] was 1.39. For the same binder, the ELISA binding value [28] was 0.312, the ELISA binding value [29] was 0.646 and the ELISA binding value [30] was 2.08. The ELISA binding value [31] was 1.32, the ELISA binding value [32] was 1.55 and the ELISA binding value [33] was 1.45.
